From patent US20110135632A1

Assays:
human GATA2 (human) = human GATA2 (human) (UniProt P23769); experiment: cell-based or functional assay
human TFII-I (human) = human TFII-I (human) (UniProt P78347); experiment: cell-based or functional assay
Sequence of human TFII-I (human) (P78347 2-998 limits assumed): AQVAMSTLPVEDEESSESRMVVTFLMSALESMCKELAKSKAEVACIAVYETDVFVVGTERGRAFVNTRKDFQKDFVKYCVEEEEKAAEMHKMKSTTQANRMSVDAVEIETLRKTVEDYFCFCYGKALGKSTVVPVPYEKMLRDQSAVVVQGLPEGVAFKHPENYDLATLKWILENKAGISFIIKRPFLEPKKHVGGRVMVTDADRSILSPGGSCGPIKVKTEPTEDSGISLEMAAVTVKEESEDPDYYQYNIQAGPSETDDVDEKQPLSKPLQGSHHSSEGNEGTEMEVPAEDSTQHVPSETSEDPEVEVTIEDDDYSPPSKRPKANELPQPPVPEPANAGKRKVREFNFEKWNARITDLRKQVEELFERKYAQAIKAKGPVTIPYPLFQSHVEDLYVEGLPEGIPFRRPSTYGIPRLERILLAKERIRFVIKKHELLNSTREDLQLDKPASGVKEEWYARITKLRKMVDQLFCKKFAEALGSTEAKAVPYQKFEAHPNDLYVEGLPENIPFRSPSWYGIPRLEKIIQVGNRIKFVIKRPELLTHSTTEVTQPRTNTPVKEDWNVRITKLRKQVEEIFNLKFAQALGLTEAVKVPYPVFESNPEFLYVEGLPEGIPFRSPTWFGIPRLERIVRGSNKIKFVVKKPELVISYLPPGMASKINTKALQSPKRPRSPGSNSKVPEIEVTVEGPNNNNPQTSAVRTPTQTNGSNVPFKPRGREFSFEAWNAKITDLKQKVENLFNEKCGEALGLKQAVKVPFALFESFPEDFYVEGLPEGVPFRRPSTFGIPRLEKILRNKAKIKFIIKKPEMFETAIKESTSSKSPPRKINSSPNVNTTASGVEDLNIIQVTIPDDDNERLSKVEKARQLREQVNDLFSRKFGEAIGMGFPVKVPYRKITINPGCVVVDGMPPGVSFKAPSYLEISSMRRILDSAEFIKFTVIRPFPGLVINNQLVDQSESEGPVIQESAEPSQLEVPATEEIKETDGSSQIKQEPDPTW

Sequence of human GATA2 (human) (P23769 whole entry): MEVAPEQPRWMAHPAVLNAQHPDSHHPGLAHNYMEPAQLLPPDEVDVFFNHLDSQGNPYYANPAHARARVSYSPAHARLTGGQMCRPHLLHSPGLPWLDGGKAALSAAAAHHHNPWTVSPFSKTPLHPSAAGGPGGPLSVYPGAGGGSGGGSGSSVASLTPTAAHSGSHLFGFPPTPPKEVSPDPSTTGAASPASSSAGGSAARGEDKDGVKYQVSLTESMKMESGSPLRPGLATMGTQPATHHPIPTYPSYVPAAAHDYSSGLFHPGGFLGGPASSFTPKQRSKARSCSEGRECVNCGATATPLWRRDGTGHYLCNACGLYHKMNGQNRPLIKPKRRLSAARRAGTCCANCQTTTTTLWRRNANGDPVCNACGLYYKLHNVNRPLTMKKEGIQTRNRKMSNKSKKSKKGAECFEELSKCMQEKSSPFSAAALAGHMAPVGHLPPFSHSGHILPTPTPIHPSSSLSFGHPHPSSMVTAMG

GATA2 levels in the nucleus of p190RhoGAP knockdown cells relative to control cells (immunoblotting, fluorescence microscopy) (human GATA2 (human)): > 10 fold | TFII-I protein levels in the nuclear fraction of p190RhoGAP knockdown HMVE cells (immunoblot, fluorescence microscopy) (human TFII-I (human)): 1.5 fold
B1: human p190RhoGAP (protein)
chain: MMMARKQDVRIPTYNISVVGLSGTEKEKGQCGIGKSCLCNRFVRPSADEFHLDHTSVLSTSDFGGRVVNNDHFLYWGEVSRSLEDCVECKMHIVEQTEFIDDQTFQPHRSTALQPYIKRAAATKLASAEKLMYFCTDQLGLEQDFEQKQMPDGKLLVDGFLLGIDVSRGMNRNFDDQLKFVSNLYNQLAKTKKPIVVVLTKCDEGVERYIRDAHTFALSKKNLQVVETSARSNVNVDLAFSTLVQLIDKSRGKTKIIPYFEALKQQSQQIATAKDKYEWLVSRIVKNHNENWLSVSRKMQASPEYQDYVYLEGTQKAKKLFLQHIHRLKHEHIERRRKLYLAALPLAFEALIPNLDEIDHLSCIKAKKLLETKPEFLKWFVVLEETPWDATSHIDNMENERIPFDLMDTVPAEQLYEAHLEKLRNERKRVEMRRAFKENLETSPFITPGKPWEEARSFIMNEDFYQWLEESVYMDIYGKHQKQIIDKAKEEFQELLLEYSELFYELELDAKPSKEKMGVIQDVLGEEQRFKALQKLQAERDALILKHIHFVYHPTKETCPSCPACVDAKIEHLISSRFIRPSDRNQKNSLSDPNIDRINLVILGKDGLARELANEIRALCTNDDKYVIDGKMYELSLRPIEGNVRLPVNSFQTPTFQPHGCLCLYNSKESLSYVVESIEKSRESTLGRRDNHLVHLPLTLILVNKRGDTSGETLHSLIQQGQQIASKLQCVFLDPASAGIGYGRNINEKQISQVLKGLLDSKRNLNLVSSTASIKDLADVDLRIVMCLMCGDPFSADDILFPVLQSQTCKSSHCGSNNSVLLELPIGLHKKRIELSVLSYHSSFSIRKSRLVHGYIVFYSAKRKASLAMLRAFLCEVQDIIPIQLVALTDGAVDVLDNDLSREQLTEGEEIAQEIDGRFTSIPCSQPQHKLEIFHPFFKDVVEKKNIIEATHMYDNAAEACSTTEEVFNSPRAGSPLCNSNLQDSEEDIEPSYSLFREDTSLPSLSKDHSKLSMELEGNDGLSFIMSNFESKLNNKVPPPVKPKPPVHFEITKGDLSYLDQGHRDGQRKSVSSSPWLPQDGFDPSDYAEPMDAVVKPRNEEENIYSVPHDSTQGKIITIRNINKAQSNGSGNGSDSEMDTSSLERGRKVSIVSKPVLYRTRCTRLGRFASYRTSFSVGSDDELGPIRKKEEDQASQGYKGDNAVIPYETDEDPRRRNILRSLRRNTKKPKPKPRPSITKATWESNYFGVPLTTVVTPEKPIPIFIERCIEYIEATGLSTEGIYRVSGNKSEMESLQRQFDQDHNLDLAEKDFTVNTVAGAMKSFFSELPDPLVPYNMQIDLVEAHKINDREQKLHALKEVLKKFPKENHEVFKYVISHLNKVSHNNKVNLMTSENLSICFWPTLMRPDFSTMDALTATRTYQTIIELFIQQCPFFFYNRPITEPPGARPSSPSAVASTVPFLTSTPVTSQPSPPQSPPPTPQSPMQPLLPSQLQAEHTL
